Key:
Assay in all cases: cell-based or functional assay
[1] = biological target: N-type calcium channel formed by human brain α1B subunit together with rabbit β3 subunit, expressed in Xenopus oocytes (human; rabbit) (UniProt Q00975)
[2] = biological target: rabbit cardiac α1C subunit, modified cDNA ΔN60 truncated by 60 amino acids at the N-terminal end, expressed in Xenopus oocytes (rabbit) (UniProt P15381)
[3] = biological target: rat brain α1G subunit expressed from cRNA in Xenopus oocytes (rat) (UniProt O54898)

UniProt Q00975, sequence (Q00975 whole entry, chain 1 of 2, the tested form may be a part): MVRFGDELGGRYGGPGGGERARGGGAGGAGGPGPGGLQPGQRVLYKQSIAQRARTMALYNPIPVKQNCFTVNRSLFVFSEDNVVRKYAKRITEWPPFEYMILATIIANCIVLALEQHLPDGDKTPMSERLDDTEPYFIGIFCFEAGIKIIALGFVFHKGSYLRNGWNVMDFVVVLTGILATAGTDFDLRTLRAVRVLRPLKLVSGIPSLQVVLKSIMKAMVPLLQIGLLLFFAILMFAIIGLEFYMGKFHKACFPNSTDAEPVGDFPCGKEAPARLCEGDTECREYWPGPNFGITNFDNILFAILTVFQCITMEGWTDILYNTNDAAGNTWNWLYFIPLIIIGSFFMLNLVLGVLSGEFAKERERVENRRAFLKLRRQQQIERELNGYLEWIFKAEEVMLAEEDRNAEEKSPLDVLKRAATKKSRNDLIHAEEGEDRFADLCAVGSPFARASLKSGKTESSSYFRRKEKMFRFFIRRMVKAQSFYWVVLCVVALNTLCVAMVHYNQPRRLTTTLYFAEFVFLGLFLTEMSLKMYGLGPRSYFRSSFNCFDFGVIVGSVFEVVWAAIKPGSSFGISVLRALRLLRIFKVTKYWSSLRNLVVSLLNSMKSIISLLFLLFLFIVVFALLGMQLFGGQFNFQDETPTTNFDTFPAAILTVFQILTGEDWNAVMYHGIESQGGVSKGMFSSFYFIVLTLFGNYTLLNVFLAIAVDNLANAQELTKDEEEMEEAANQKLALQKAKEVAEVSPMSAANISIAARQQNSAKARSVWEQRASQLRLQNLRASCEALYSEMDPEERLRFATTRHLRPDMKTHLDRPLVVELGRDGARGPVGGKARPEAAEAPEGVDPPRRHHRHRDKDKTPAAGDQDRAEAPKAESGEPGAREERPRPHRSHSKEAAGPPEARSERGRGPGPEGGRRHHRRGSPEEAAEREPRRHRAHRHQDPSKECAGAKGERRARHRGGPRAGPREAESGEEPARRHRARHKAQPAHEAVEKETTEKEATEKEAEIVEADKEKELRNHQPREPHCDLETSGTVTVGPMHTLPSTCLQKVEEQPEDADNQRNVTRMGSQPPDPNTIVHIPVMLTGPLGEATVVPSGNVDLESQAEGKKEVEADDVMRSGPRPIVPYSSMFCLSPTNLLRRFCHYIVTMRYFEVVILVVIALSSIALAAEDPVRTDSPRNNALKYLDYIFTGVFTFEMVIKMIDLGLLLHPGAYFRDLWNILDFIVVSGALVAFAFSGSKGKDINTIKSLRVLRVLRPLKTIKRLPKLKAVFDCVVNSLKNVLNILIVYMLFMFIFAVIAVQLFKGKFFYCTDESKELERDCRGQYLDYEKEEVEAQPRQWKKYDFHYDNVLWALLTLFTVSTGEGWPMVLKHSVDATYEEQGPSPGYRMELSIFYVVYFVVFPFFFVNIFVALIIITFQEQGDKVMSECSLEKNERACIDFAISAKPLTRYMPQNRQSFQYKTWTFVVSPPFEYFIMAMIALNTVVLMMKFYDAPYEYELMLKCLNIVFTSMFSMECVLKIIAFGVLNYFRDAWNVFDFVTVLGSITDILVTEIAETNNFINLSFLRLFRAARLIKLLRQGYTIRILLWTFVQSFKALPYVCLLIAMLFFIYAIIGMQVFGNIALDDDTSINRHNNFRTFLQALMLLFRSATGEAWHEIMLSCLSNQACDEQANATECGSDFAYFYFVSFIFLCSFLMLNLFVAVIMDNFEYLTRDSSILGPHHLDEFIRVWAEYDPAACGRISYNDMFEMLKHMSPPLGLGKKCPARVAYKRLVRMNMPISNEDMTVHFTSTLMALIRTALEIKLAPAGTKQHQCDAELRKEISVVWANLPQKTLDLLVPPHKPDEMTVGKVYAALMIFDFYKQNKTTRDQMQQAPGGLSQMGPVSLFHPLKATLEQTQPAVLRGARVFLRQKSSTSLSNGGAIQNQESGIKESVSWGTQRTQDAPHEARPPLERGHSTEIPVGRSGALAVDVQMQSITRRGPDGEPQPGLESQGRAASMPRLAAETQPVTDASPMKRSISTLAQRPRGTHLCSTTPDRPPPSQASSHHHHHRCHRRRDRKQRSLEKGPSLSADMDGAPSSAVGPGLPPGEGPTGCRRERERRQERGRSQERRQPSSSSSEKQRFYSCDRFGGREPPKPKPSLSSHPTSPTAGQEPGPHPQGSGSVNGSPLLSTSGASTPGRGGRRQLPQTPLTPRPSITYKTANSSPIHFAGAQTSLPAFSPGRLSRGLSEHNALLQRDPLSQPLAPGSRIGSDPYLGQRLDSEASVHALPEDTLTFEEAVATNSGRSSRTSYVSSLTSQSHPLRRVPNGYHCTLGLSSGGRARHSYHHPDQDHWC
UniProt Q00975, sequence (P54286 whole entry, chain 2 of 2, further chain, the tested form may be a part): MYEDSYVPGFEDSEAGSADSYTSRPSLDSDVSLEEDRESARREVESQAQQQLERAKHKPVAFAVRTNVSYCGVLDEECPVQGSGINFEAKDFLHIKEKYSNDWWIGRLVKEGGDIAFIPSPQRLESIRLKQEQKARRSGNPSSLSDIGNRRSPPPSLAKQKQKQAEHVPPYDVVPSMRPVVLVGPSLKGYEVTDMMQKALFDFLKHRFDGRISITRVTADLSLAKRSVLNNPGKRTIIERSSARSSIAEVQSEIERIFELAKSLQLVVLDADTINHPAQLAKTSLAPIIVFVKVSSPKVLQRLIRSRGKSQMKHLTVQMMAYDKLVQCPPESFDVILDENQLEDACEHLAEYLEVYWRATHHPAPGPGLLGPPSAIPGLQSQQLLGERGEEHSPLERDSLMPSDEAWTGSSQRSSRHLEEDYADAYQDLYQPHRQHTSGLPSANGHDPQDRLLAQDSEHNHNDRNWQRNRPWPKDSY
UniProt P15381, sequence (P15381 61-2171 limits assumed, stated change not applied): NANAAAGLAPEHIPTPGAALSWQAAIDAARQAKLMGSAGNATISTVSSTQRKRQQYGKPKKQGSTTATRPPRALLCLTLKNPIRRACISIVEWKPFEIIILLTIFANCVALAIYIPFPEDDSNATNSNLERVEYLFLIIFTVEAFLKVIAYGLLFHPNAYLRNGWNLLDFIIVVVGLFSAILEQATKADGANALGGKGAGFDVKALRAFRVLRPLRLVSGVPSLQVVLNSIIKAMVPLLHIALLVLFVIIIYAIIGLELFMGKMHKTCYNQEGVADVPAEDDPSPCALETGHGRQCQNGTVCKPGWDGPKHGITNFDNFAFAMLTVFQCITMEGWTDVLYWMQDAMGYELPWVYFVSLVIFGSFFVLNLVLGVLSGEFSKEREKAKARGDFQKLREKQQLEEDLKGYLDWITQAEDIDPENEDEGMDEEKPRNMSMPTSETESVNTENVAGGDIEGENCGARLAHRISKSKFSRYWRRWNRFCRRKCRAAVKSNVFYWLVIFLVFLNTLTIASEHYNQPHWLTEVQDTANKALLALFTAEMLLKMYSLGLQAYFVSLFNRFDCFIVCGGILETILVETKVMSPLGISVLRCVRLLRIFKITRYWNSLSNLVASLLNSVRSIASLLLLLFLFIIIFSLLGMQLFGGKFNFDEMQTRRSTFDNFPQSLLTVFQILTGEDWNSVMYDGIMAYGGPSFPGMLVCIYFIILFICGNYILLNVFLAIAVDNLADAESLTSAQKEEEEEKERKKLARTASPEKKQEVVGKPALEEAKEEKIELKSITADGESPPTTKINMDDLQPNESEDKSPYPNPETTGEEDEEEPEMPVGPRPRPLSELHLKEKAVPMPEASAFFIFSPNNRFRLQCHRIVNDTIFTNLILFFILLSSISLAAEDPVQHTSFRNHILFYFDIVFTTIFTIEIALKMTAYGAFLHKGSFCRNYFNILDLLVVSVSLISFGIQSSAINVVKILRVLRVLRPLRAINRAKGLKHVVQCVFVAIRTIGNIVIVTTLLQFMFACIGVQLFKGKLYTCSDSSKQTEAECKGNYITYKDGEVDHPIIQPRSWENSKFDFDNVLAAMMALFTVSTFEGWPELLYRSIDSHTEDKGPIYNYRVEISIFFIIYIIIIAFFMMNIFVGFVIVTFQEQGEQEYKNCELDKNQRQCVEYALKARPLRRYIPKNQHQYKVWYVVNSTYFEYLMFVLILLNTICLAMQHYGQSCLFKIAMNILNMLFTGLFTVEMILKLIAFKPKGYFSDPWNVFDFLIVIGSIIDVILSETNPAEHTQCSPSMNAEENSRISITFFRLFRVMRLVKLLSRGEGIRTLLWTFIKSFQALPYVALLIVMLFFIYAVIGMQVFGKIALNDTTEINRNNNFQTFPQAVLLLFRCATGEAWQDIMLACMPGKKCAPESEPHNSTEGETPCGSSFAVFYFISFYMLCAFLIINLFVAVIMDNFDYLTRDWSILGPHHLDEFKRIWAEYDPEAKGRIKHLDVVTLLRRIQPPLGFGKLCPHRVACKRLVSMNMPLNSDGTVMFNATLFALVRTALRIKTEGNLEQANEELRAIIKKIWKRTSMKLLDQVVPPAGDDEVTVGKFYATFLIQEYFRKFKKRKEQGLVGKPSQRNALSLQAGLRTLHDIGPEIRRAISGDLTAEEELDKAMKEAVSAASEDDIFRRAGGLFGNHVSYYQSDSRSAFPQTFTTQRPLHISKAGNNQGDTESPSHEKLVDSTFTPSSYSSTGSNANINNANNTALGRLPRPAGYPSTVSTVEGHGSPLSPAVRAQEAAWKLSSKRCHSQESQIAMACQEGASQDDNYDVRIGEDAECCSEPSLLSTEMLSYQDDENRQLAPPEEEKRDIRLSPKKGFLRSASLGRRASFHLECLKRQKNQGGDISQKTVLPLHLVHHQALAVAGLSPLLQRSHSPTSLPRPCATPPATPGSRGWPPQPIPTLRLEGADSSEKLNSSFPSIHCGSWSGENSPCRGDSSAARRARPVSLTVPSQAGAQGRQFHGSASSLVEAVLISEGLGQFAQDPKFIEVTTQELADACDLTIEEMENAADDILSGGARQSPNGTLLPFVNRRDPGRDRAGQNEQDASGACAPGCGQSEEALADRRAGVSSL

With “rabbit skeletal muscle α2δ-1 subunit expressed from cRNA in Xenopus oocytes (from UniProt P13806 27-1106)” the current remaining at the end of a 50 ms test pulse to +20 mV, percent of peak current (inactivation) (% of peak current) [1] was 33, the fold increase of N-type current magnitude [1] was 9 fold and the peak barium current (N-type), two-electrode voltage clamp in Xenopus oocytes [1] was 9.1 µA.

Substance “α2δ-2 subunit expressed from cRNA in Xenopus oocytes (from UniProt Q9NY47 19-1150)” has a current remaining at the end of a 50 ms test pulse to +20 mV, percent of peak current (inactivation) (% of peak current) [1] of 59, a peak barium current (N-type), two-electrode voltage clamp in Xenopus oocytes [1] of 7.6 µA and a L-type peak current amplitude at +30 mV, α1C/α2δ-2 against α1C alone, Xenopus oocytes [2] of 201%. For the same substance, the T-type current amplitude, α1G/α2δ-2 against α1G alone, Xenopus oocytes [3] was 176%.

— patent US20030044911A1
